Assay in all cases: cell-based or functional assay
For experiment [1], the target named is HIV-1 Env of isolate MGRM-C-015 (HIV-1).
Experiment [2] deals with HIV-1 Env of isolate MGRM-C-005 (HIV-1).
Experiment [3] addresses HIV-1 Env of isolate MGRM-C-007 (HIV-1).
Experiment [4] addresses HIV-1 Env of isolate MGRM-C-013 (HIV-1).
The target of experiment [5] is HIV-1 Env of isolate MGRM-C-010 (HIV-1).
Experiment [6] has as its target HIV-1 Env of isolate MGRM-C-006 (HIV-1).
The target in experiment [7] is HIV-1 Env of isolate MGRM-C-004 (HIV-1).
The target in experiment [8] is HIV-1 Env of isolate MGRM-C-024 (HIV-1).
Experiment [9] concerns the target HIV-1 Env of isolate MGRM-C-002 (HIV-1).
The target in experiment [10] is HIV-1 Env of isolate MGRM-C-014 (HIV-1).
Experiment [11] addresses HIV-1 Env of isolate MGRM-C-001 (HIV-1).
For experiment [12], the target named is HIV-1 Env of isolate MGRM-C-020 (HIV-1).
The target in experiment [13] is HIV-1 Env of isolate MGRM-C-022 (HIV-1).
The target of experiment [14] is HIV-1 Env of isolate MGRM-C-023 (HIV-1).
Experiment [15] deals with HIV-1 Env of isolate MGRM-C-012 (HIV-1).
The target of experiment [16] is HIV-1 Env of isolate MGRM-C-025 (HIV-1).
In experiment [17] the target is HIV-1 Env of isolate MGRM-C-008 (HIV-1).
Experiment [18] concerns the target HIV-1 Env of isolate MGRM-C-009 (HIV-1).
Experiment [19] has as its target HIV-1 Env of isolate MGRM-C-017 (HIV-1).
Experiment [20] deals with HIV-1 Env of isolate MGRM-C-019 (HIV-1).
The target in experiment [21] is HIV-1 MGRM-C-027 Env (pseudovirus) (HIV-1).
In experiment [22] the target is HIV-1 92UG024 Env (pseudovirus) (HIV-1).
For experiment [23], the target named is HIV-1 APV6 Env (pseudovirus) (HIV-1).
The target of experiment [24] is HIV-1 MGRM-C-026 Env (pseudovirus) (HIV-1).
Experiment [25] concerns the target HIV-1 93IN905 Env (pseudovirus) (HIV-1).
Experiment [26] concerns the target HIV-1 94UG103 Env (pseudovirus) (HIV-1).
Experiment [27] deals with HIV-1 NL43 Env (pseudovirus) (HIV-1).
The target in experiment [28] is HIV-1 JRCSF Env (pseudovirus) (HIV-1) (UniProt P20871).
Experiment [29] has as its target HIV-1 MGRM-A-010 Env (pseudovirus) (HIV-1).
Experiment [30] concerns the target HIV-1 92TH021 Env (pseudovirus) (HIV-1).
The target in experiment [31] is HIV-1 92UG005 Env (pseudovirus) (HIV-1).
Experiment [32] concerns the target HIV-1 CMU02 Env (pseudovirus) (HIV-1).
For experiment [33], the target named is HIV-1 MGRM-D-018 Env (pseudovirus) (HIV-1).
For experiment [34], the target named is HIV-1 92RW020 Env (pseudovirus) (HIV-1).
Experiment [35] deals with HIV-1 MGRM-C-028 Env (pseudovirus) (HIV-1).

Nine substances from US20250320281A1 can be followed below.

For orientation: IC50 means the concentration at which inhibition is half-maximal. A high value points to a need for much substance.

Sequence of 1443_C16 (PG16) (TCN-116) (antibody) (VH): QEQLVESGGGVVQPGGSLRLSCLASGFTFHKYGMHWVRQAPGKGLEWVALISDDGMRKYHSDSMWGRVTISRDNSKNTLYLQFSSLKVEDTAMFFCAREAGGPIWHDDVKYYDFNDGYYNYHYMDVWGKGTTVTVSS
Sequence of 1443_C16 (PG16) (TCN-116) (antibody) (VL): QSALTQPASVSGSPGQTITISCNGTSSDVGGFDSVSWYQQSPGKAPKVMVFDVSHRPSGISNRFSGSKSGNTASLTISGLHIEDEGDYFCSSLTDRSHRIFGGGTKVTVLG
Sequence of 4995_E20 (PGT-142) (antibody) (VH): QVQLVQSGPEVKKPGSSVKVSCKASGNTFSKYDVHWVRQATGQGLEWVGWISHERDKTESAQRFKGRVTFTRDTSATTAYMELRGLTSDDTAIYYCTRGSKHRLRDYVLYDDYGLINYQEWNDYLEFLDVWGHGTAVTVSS
Sequence of 4995_E20 (PGT-142) (antibody) (VL): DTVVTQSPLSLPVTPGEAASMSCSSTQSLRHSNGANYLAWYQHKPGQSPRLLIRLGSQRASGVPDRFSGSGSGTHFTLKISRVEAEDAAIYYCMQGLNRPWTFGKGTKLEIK
Sequence of 4980_N08 (PGT-143) (antibody) (VH): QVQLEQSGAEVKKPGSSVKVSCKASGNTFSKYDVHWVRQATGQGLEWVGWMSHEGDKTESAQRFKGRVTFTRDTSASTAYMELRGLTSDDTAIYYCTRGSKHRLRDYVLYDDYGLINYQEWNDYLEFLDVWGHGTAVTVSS
Sequence of 4980_N08 (PGT-143) (antibody) (VL): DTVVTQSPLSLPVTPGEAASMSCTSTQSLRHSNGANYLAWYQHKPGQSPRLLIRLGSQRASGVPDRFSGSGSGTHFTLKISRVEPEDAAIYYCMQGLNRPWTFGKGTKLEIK
Sequence of 4970_K22 (PGT-144) (antibody) (VH): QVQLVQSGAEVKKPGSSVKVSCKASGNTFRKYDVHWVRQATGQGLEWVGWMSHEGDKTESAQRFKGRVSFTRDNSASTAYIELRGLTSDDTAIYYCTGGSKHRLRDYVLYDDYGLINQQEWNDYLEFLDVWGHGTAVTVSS
Sequence of 4970_K22 (PGT-144) (antibody) (VL): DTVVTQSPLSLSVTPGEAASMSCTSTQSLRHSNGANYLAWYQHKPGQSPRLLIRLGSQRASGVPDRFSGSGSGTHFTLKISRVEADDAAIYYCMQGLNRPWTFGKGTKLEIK
Sequence of 4993_K13 (PGT-141) (antibody) (VH): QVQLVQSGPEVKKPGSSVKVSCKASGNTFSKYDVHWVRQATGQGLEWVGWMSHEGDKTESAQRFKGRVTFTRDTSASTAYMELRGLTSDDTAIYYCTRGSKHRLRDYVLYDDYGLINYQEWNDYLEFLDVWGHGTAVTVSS

For 1443_C16 (PG16) (TCN-116) (antibody), the IC50 in experiment [1] is 0.26 µg/mL; in experiment [2], 2.55 µg/mL; in experiment [3] it was 0.05 µg/mL; in experiment [4], more than 50 µg/mL; in experiment [5], more than 50 µg/mL; in experiment [6], 2.62 µg/mL. Further, the IC50 in [7] was 5.09 µg/mL; in [8] it was 0.04 µg/mL; in experiment [9], 28.3 µg/mL; in experiment [10], more than 50 µg/mL; in experiment [11], 16.8 µg/mL; in experiment [12] it was more than 50 µg/mL. The 50% inhibitory concentration (IC50) is 0.25 µg/mL in experiment [13]; 0.09 µg/mL in [14]; 0.48 µg/mL in experiment [15]; 0.04 µg/mL in experiment [16]; more than 50 µg/mL in experiment [17]; more than 50 µg/mL in experiment [18]. The IC50 turned out to be 1.8 µg/mL in [19] and 0.002 µg/mL in experiment [20].
Turning to 2G12 (antibody), the IC50 in experiment [1] is 1.75 µg/mL; in [2], more than 50 µg/mL; in [3], more than 50 µg/mL; in [4], more than 50 µg/mL; in experiment [5], more than 50 µg/mL; in [6], more than 50 µg/mL. In addition, the IC50 in experiment [7] is more than 50 µg/mL; in [8] it was more than 50 µg/mL; in [9], more than 50 µg/mL; in experiment [10] it was more than 50 µg/mL; in [11] it was 2.93 µg/mL; in experiment [12], 18.6 µg/mL. Also, the half-inhibitory concentration (IC50) in experiment [13], in experiment [14], in experiment [15], in [16], in [17] and in experiment [18] was more than 50 µg/mL in each case. For the same substance, the IC50 in experiment [19] and in experiment [20] was more than 50 µg/mL each time.
Regarding 4970_K22 (PGT-144) (antibody), the IC50 (neutralizing activity, pseudovirus) was more than 10 µg/mL in experiment [21]; more than 10 µg/mL in experiment [22]; more than 10 µg/mL in [23]; more than 10 µg/mL in [24]; 0.158 µg/mL in experiment [25]; more than 10 µg/mL in [26]. The IC50 (neutralizing activity, pseudovirus) in experiment [27] is more than 10 µg/mL; in [28], 0.128 µg/mL; in [29], 4.02 µg/mL; in experiment [30], 0.0934 µg/mL; in [31], more than 10 µg/mL; in experiment [32] it was more than 10 µg/mL. For the same substance, the IC50 (neutralizing activity, pseudovirus) in [33] and in experiment [35] was more than 10 µg/mL in each case. Also, the neutralization IC50 (pseudovirus) in experiment [34] was more than 10 µg/mL.
As to 4980_N08 (PGT-143) (antibody), the IC50 (neutralizing activity, pseudovirus) in experiment [21] is 0.505 µg/mL; in experiment [22], more than 10 µg/mL; in experiment [23], 4.43 µg/mL; in experiment [24], more than 10 µg/mL; in experiment [25] it was 0.0021 µg/mL; in [26] it was more than 10 µg/mL. Further, the IC50 (neutralizing activity, pseudovirus) in experiment [27] is 0.585 µg/mL; in experiment [28] it was 0.0064 µg/mL; in experiment [29], 0.0657 µg/mL; in experiment [30] it was 0.0028 µg/mL; in [31], more than 10 µg/mL; in experiment [32], more than 10 µg/mL. In addition, the IC50 (neutralizing activity, pseudovirus) in [33] is more than 10 µg/mL; in [35] it was 1.82 µg/mL. This substance returned a neutralization IC50 (pseudovirus) in experiment [34] of more than 10 µg/mL.
As to 4E10 (antibody), the concentration for half-maximal inhibition (IC50) was 2.52 µg/mL in experiment [1]; 16.4 µg/mL in [2]; 5.84 µg/mL in experiment [3]; 2.1 µg/mL in experiment [4]; 11 µg/mL in experiment [5]; 4.94 µg/mL in experiment [6]. For the same substance, the half-inhibitory concentration (IC50) in experiment [7] was determined as 24.2 µg/mL; in experiment [8], 22.6 µg/mL; in [9] it was 18.2 µg/mL; in [10], 2.48 µg/mL; in [11] it was 5.66 µg/mL; in experiment [12], 2.8 µg/mL. Besides, the IC50 was 5.71 µg/mL in experiment [13]; 1.95 µg/mL in experiment [14]; 0.44 µg/mL in [15]; 5.58 µg/mL in experiment [16]; 2.97 µg/mL in experiment [17]; 0.56 µg/mL in experiment [18]. The IC50 turned out to be 1.47 µg/mL in [19] and 3.49 µg/mL in experiment [20].
With 4995_E20 (PGT-142) (antibody), the IC50 (neutralizing activity, pseudovirus) was 0.272 µg/mL in experiment [21]; more than 10 µg/mL in [22]; 5.42 µg/mL in experiment [23]; more than 10 µg/mL in experiment [24]; 0.0017 µg/mL in [25]; more than 10 µg/mL in experiment [26]. The IC50 (neutralizing activity, pseudovirus) in experiment [27] was 0.712 µg/mL; in experiment [28], 0.0085 µg/mL; in experiment [29], 0.0578 µg/mL; in experiment [30] it was 0.0022 µg/mL; in [31], more than 10 µg/mL; in [32] it was more than 10 µg/mL. In addition, the results for the IC50 (neutralizing activity, pseudovirus) in experiment [33] and in [35] were more than 10 µg/mL and 1.23 µg/mL, respectively. Moreover, the neutralization IC50 (pseudovirus) in experiment [34] is more than 10 µg/mL.
In the case of VRC01 (antibody), the IC50 (µg/mL), pseudovirus neutralization in [1] is 1.57 µg/mL; in [8], 3.4 µg/mL; in experiment [10] it was more than 50 µg/mL; in experiment [12] it was 0.396 µg/mL; in [13] it was 13 µg/mL; in [14] it was 0.077 µg/mL. Moreover, the IC50 (µg/mL), pseudovirus neutralization in experiment [16] amounted to 2.36 µg/mL; in experiment [19], 0.366 µg/mL; in experiment [20], 1.13 µg/mL. The same substance came in with an IC50, pseudovirus neutralization in [7] of 1.01 µg/mL.
With 4993_K13 (PGT-141) (antibody), the IC50 (neutralizing activity, pseudovirus) in experiment [21] is 0.822 µg/mL; in experiment [22], more than 10 µg/mL; in [23] it was 5.08 µg/mL; in experiment [24], more than 10 µg/mL; in [25] it was 0.0016 µg/mL; in experiment [26] it was more than 10 µg/mL. Moreover, the IC50 (neutralizing activity, pseudovirus) is 0.856 µg/mL in experiment [27]; 0.0047 µg/mL in experiment [28]; 0.0563 µg/mL in experiment [29]; 0.0019 µg/mL in experiment [30]; more than 10 µg/mL in experiment [31]; more than 10 µg/mL in experiment [32]. In addition, the IC50 (neutralizing activity, pseudovirus) in experiment [33] was more than 10 µg/mL; in [35], 2.35 µg/mL. For the same substance, the neutralization IC50 (pseudovirus) in experiment [34] is more than 10 µg/mL.
For the substance 1496_C09 (PG9) (TCN-109) (antibody), the IC50 is 0.5 µg/mL in experiment [1]; 2.98 µg/mL in experiment [2]; 0.09 µg/mL in experiment [3]; 12.4 µg/mL in experiment [5]; 0.23 µg/mL in [6]; 1.18 µg/mL in experiment [7]. In addition, the IC50 in [8] came to 0.22 µg/mL; in experiment [10], 0.64 µg/mL; in experiment [13] it was 0.19 µg/mL; in experiment [14], 0.51 µg/mL; in experiment [15], 0.24 µg/mL; in experiment [16], 0.17 µg/mL. Moreover, the results for the IC50 in [19] and in experiment [20] were 1.52 µg/mL and 0.01 µg/mL, respectively. In addition, the neutralization IC50 (pseudovirus) in experiment [21] was 2.45 µg/mL; in experiment [22], 1.91 µg/mL; in experiment [23], 0.214 µg/mL; in experiment [24], 0.113 µg/mL; in [25], 0.048 µg/mL; in experiment [26], 0.31 µg/mL. Besides, the neutralization IC50 (pseudovirus) in experiment [27] was 0.687 µg/mL; in [28], 0.0048 µg/mL; in experiment [29], 0.0375 µg/mL; in [30], 0.103 µg/mL; in experiment [33], 2.04 µg/mL; in experiment [34], 0.161 µg/mL. Further, in [35], the neutralization IC50 (pseudovirus) is 0.121 µg/mL.
